US20260207718A1, “METHODS FOR TREATING LATE ONSET POMPE DISEASE IN PEDIATRIC PATIENTS” (Amicus Therapeutics, Inc., priority 2022, published 2026)
pKd: −log10 of the molar value. Entries after “also recorded” stand apart in the source; their conditions may differ. Read-outs that look alike come from different tables or passages of the source. Marks after values point to notes of the source that are not given here.

Legend:
CIMPR [1] = biological target: T1, CIMPR (Homo sapiens, UniProt P11717); assay: CIMPR affinity chromatography (bound vs unbound rhGAA by GAA activity); format: binding
Excerpt: Multiple batches of the rhGAA according to the disclosure were produced in shake flasks and in perfusion bioreactors using CHO cell line GA-ATB200, the product of which is referred to as “ATB200.” Weak anion exchange (“WAX”) liquid chromatography was used to fractionate ATB200 rhGAA according to terminal phosphate and sialic acid. Elution profiles were generated by eluting the ERT with increasing amount of salt. The profiles were monitored by UV (A280 nm).
To evaluate the ability of the conventional rhGAAs in MYOZYME® and LUMIZYME® to interact with the CIMPR, the two conventional rhGAA preparations were injected onto a CIMPR affinity column (which binds rhGAA having M6P groups) and the flow through collected. The bound material was eluted with a free M6 gradient. Fractions were collected in 96-well plate and GAA activity assayed by 4MU-α-glucosidase substrate. The relative amounts of unbound (flow through) and bound (M6P eluted) rhGAA were determined based on GAA activity and reported as the fraction of total enzyme. […] Indeed, only 27% of the rhGAA in MYOZYME® and 22% of the rhGAA in LUMIZYME® contained M6P that can be productive to target it to the CIMPR on muscle cells.

CIMPR [2] = biological target: T1, CIMPR; assay: CIMPR plate binding assay
Procedure: In addition to having a greater percentage of rhGAA that can bind to the CIMPR, it is important to understand the quality of that interaction. LUMIZYME® and ATB200 receptor binding was determined using a CIMPR plate binding assay. Briefly, CIMPR-coated plates were used to capture GAA. Varying concentrations of rhGAA were applied to the immobilized receptor and unbound rhGAA was washed off. The amount of remaining rhGAA was determined by GAA activity. […] For LUMIZYME®, there is on average only 10% of molecules having a bis-phosphorylated N-glycan. In contrast, on average every rhGAA molecule in ATB200 has at least one bis-phosphorylated N-glycan.
N-glycan analysis via MALDI-TOF mass spectrometry confirmed that on average each ATB200 molecule contains at least one natural bis-M6P N-glycan structure.

[3] = tested on: normal and Pompe fibroblast cell lines; assay: Cellular uptake of rhGAA in fibroblasts; format: cell-based
Procedure: The relative cellular uptake of ATB200 and LUMIZYME® rhGAA were compared using normal and Pompe fibroblast cell lines. Comparisons involved 5-100 nM of ATB200 according to the disclosure with 10-500 nM conventional rhGAA product LUMIZYME®. After 16-hr incubation, external rhGAA was inactivated with TRIS base and cells were washed 3-times with PBS prior to harvest. Internalized GAA measured by 4MU-α-Glucoside hydrolysis and was graphed relative to total cellular protein and the results appear in FIGS. 11A-11C.
ATB200 was also shown to be efficiently internalized into cells. […] ATB200 saturates cellular receptors at about 20 nM, while about 250 nM of LUMIZYME® is needed to saturate cellular receptors.

[4] = Thermostability assay using SYPRO Orange; format: physicochemical
Procedure: The stability of ATB200 in acidic or neutral pH buffers was evaluated in a thermostability assay using SYPRO Orange, as the fluorescence of the dye increases when proteins denature. […] As summarized in Table 10, the addition of miglustat increased the melting temperature (Tm) of ATB200 by nearly 10° C.

Gaa KO mice = assay: Single fiber analysis (LAMP1/LC3) of muscle fibers from Gaa KO mice; format: in vivo
Excerpt: FIG. 17 depicts co-immunofluorescent staining of LAMP1 (green) (see for example, “B”) and LC3 (red) (see, for example, “A”) in single fibers isolated from the white gastrocnemius of Gaa KO mice treated with a vehicle, alglucosidase alfa, or ATB200. “C” depicts clearance of autophagic debris and absence of enlarged lysosome. A minimum of 30 fibers were examined from each animal.
As a result, a significant portion of muscle fibers analyzed (36-60%) from ATB200-treated mice appeared normal or near-normal.

[5] = ATB200-04 trial: population PK exposure matching of adolescents to adults; format: in vivo, human; parameters: AUC0-24, Mean / AUC0-24, Median / AUC0-24, P5 / AUC0-24, P95 / AUC0-24, Geo Mean: unit not given beside the values; conditions: for AUC0-24, Geo Mean / AUC0-24, Mean / AUC0-24, Median / AUC0-24, P5 / AUC0-24, P95: predicted
Excerpt: The ATB200-04 trial seeks to evaluate the safety and tolerability of cipaglucosidase alfa/miglustat co-administration.
Subjects have scheduled PK assessments at Day 1, Week 26, and Week 52 for plasma total GAA protein and miglustat.
Population PK parameters include clearance (CL) and volume of distribution (V), estimated from total GAA protein concentrations and miglustat concentrations in plasma.
Methods for Exposure Matching. Pediatric PK data from both clinical trials and expanded access programs were used for exposure matching to adult PK data. […] The previous base population PK models from cipaglucosidase alfa-atga and miglustat were rerun with the updated dataset. To account for longitudinal changes in body size for pediatric patients, the time-varying body weight was used to estimate the effects of body size on PK parameters in the population PK models. The effect of age at baseline on clearance was also evaluated in the PK models. Individual AUC0-24 and Cmax of cipaglucosidase alfa and miglustat were predicted from the PK empirical Bayes estimates (EBEs). The time-varying body weight and baseline age in pediatrics were used in the exposure prediction. PK exposures (AUC0-24 and Cmax) were predicted for each PK visit during the study; Day 1-baseline, Week 26, and Week 52. Additionally, there were unscheduled PK visits for some subjects.
Results for Adolescent Subjects. […] The dose may have been adjusted at a later visit for exposure matching. It should be noted however, that in the early stage of the study, all subjects were started at 20 mg/kg to evaluate safety.

[6] = tested on: pediatric subjects with late-onset Pompe disease; assay: ATB200-04 trial: safety in pediatric subjects with LOPD; format: in vivo, human; conditions: ERT-experienced subject, Cohort 2
Excerpt: This study includes subjects with Pompe disease except classic IOPD.
Safety assessments include monitoring of adverse events (AEs), clinical laboratory tests (chemistry, hematology, and urinalysis), physical examinations, vital signs, 12-lead electrocardiogram (ECGs), and detection of cipaglucosidase alfa antibodies.

[7] = Case: pediatric atypical IOPD patient, PK of ATB200 and AT2221 after 1 year; format: in vivo, human
[8] = adolescent Subject 2, 20 mg/kg, Week 52, 83.8 kg
[9] = adolescent Subject 3, 25 mg/kg, Week 52, 64.6 kg
[10] = adolescent Subject 4, 25 mg/kg, Week 64, 53.3 kg
[11] = adolescent Subject 5, 25 mg/kg, Week 52, 43.7 kg
[12] = adolescent Subject 6, 25 mg/kg, Week 52, 36.5 kg
[13] = adolescent Subject 7, 25 mg/kg, Week 52, 60.3 kg
[14] = adolescent Subject 8, 25 mg/kg, Week 72, 38.5 kg

T1 sequence (P11717 41-2491, species assumed): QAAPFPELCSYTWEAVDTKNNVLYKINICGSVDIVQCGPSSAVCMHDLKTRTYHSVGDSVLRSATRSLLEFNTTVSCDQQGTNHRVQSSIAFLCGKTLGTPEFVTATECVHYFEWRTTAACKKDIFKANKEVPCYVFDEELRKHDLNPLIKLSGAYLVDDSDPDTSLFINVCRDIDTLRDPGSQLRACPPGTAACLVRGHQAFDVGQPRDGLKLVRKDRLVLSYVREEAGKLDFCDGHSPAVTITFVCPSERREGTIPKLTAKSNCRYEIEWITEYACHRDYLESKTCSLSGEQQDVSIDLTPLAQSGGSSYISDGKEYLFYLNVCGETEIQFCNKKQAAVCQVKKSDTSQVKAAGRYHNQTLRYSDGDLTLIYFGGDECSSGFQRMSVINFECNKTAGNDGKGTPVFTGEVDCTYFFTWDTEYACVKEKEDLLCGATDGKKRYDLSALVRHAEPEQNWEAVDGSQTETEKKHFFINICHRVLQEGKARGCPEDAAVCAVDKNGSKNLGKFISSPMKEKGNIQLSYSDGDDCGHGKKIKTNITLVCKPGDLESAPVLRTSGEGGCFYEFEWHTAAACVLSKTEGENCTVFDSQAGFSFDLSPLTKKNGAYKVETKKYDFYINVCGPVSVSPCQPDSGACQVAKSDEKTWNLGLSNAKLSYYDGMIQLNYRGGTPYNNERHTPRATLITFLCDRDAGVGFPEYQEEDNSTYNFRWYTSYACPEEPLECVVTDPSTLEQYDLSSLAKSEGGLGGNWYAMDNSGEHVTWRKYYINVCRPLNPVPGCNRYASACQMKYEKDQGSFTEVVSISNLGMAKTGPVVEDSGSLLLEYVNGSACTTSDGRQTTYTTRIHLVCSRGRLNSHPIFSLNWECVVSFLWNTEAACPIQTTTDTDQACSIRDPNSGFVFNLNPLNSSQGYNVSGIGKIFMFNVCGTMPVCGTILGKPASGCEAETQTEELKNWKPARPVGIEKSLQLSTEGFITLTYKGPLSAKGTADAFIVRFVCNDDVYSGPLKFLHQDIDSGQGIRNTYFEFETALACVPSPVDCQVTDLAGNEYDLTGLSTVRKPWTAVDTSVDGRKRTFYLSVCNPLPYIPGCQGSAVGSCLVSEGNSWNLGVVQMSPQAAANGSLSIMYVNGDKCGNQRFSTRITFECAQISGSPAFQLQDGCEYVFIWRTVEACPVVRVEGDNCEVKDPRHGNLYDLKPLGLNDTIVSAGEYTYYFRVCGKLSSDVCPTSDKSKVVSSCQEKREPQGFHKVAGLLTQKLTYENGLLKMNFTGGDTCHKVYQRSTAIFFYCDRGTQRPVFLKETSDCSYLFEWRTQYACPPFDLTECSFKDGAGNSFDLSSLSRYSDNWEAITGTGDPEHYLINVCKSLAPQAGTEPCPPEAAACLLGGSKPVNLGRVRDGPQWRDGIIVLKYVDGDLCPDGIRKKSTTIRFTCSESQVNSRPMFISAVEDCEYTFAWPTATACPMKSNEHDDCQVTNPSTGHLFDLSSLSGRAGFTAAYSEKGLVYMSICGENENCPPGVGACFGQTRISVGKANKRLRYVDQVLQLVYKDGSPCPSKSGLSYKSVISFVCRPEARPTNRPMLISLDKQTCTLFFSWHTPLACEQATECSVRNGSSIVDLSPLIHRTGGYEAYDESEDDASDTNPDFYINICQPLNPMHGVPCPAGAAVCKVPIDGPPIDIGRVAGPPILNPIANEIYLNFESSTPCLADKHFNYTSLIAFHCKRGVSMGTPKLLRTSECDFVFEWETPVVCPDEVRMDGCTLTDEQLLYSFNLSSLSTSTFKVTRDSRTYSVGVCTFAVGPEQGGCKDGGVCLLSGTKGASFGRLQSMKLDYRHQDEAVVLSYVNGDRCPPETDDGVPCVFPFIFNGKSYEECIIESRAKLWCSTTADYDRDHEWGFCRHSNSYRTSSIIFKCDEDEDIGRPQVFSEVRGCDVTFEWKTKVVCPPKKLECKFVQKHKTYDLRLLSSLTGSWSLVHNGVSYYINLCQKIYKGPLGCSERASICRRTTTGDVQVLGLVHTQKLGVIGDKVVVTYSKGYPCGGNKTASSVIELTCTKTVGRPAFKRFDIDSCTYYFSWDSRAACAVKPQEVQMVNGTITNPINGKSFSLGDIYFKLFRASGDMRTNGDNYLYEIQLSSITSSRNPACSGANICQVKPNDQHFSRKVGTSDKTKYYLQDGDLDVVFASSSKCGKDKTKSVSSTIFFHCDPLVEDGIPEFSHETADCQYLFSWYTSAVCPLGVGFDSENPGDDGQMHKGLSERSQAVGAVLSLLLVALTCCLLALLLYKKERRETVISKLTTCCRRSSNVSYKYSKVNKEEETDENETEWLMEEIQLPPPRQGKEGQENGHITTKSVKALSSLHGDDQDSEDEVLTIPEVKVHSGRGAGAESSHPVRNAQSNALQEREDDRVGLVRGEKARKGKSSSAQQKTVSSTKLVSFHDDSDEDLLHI

Substance: ATB200: recombinant human acid α-glucosidase with high content of N-glycans bearing mono-M6P and bis-M6P, produced from GA-ATB200 CHO cell line
- rhGAA that bound to the CIMPR (CIMPR [1]): more than 70%
- rhGAA that bound to the CIMPR (CIMPR [1]; listed as ATB200 rhGAA): ≥ 70%
- binding to CIMPR compared with LUMIZYME® (CIMPR [2]; CIMPR plate binding assay, FIG. 10A): bound to CIMPR significantly better than LUMIZYME®
- pKd (CIMPR [2]; M6P receptor plate binding assays): 8.40 to 8.70
- concentration that saturates cellular receptors ([3]; 16-hr incubation): about 20 nM
- uptake efficiency constant (Kuptake) ([3]; 16-hr incubation, extrapolated, FIG. 11C): 2-3 nm
- internalization into normal and Pompe fibroblast cells ([3]; FIGS. 11A-11B): internalized to a greater degree than the conventional rhGAA product LUMIZYME®
- Tm ([4]; pH 5.2): 67.3 °C
- Tm ([4]; pH 7.4): 56.2 °C
- increase of melting temperature (Tm) by addition of miglustat ([4]; pH 7.4): ~10 °C
- Tm ([4]; pH 7.4 + 10 μM miglustat): 61.6 °C
- Tm ([4]; pH 7.4 + 30 μM miglustat): 62.9 °C
- Tm ([4]; pH 7.4 + 100 μM miglustat): 66.0 °C
- Fibers with Autophagy Buildup (Gaa KO mice): 40-64%*
- Fibers with Normal or Near-normal Appearance (Gaa KO mice): 36-60%
- Lysosome Enlargement (Gaa KO mice; white gastrocnemius): dramatically decreased lysosome size; also recorded: Dramatic size
- AUC0-24, geometric LSM Ratio adolescents to adults ([5]; 90% CI (81.96, 96.88)): 89.11
- Cmax, geometric LSM Ratio adolescents to adults ([5]; 90% CI (82.51, 104.69)): 92.94
- individual predicted AUC0-24 ([5]; adolescent Subject 1, 20 mg/kg, Week 52, 77.9 kg): 1396
- individual predicted AUC0-24 [5, 8]: 1315
- individual predicted Cmax [5, 8]: 277
- individual predicted AUC0-24 [5, 9]: 1318
- individual predicted Cmax [5, 9]: 305
- individual predicted AUC0-24 [5, 10]: 1472
- individual predicted Cmax [5, 10]: 294
- individual predicted AUC0-24 [5, 11]: 1175
- individual predicted Cmax [5, 11]: 240
- individual predicted AUC0-24 [5, 12]: 1047
- individual predicted Cmax [5, 12]: 222
- individual predicted AUC0-24 [5, 13]: 1269
- individual predicted Cmax [5, 13]: 273
- individual predicted AUC0-24 [5, 14]: 1138
- individual predicted Cmax [5, 14]: 229
- predicted AUC0-24 and Cmax for adolescents relative to adult 5th and 95th percentile range ([5]; adults N=100, adolescents N=8): well within the adult 5th and 95th percentile range
- AUC0-24, Geo Mean ([5]; Adolescents N=8): 1259
- AUC0-24, Mean ([5]; Adolescents N=8): 1266
- AUC0-24, Median ([5]; Adolescents N=8): 1292
- AUC0-24, P5 ([5]; Adolescents N=8): 1079
- AUC0-24, P95 ([5]; Adolescents N=8): 1446
- AUC0-24, Geo Mean ([5]; Adults N=100): 1413
- AUC0-24, Mean ([5]; Adults N=100): 1461
- AUC0-24, Median ([5]; Adults N=100): 1433
- AUC0-24, P5 ([5]; Adults N=100): 898
- AUC0-24, P95 ([5]; Adults N=100): 2162
- investigator-assessed relatedness of anaphylaxis event (both episodes) [6]: definitely related
- ATB200 AUC ([7]; Adult (10th-90th percentile)): 1001 to 1924 µg·h/mL
- ATB200 Cmax ([7]; Adult (10th-90th percentile)): 223 to 363 µg/mL
- ATB200 AUC ([7]; Adult (median)): 1415 µg·h/mL
- ATB200 Cmax ([7]; Adult (median)): 294 µg/mL
- ATB200 AUC ([7]; patient with atypical IOPD, 12Y5M, 46.5 kg, ATB200 20 mg/kg + AT2221 195 mg biweekly for 1 year): 1257 µg·h/mL
- ATB200 Cmax ([7]; patient with atypical IOPD, 12Y5M, 20 mg/kg): 245 µg/mL
